From US7807387B2, “Biological agent that causes IL-6 receptor release” (Meyer Pharmaceuticals LLC, priority 2003, dated 2010) come the findings set out here.

The target in series [1] is p55 TNF Receptor (Homo sapiens, UniProt P19438). As to the kind of experiment: FRET peptide cleavage assay, p55 TNF receptor peptide. The class given is biochemical. As to conditions: Zn++ 0.1 mM, Ca++ 2 mM, corrected for EDTA, 37° C. for 3 hours. Here is the method:
(§1) Cytokine-specific proteolytic activity can rapidly be quantified by Fluorescence Resonance Energy Transfer (FRET). Peptides having the amino acid sequence of the TNF Receptor or other protein substrates are labeled at opposite ends with a fluorescence emitter and a fluorescence quencher. The peptide is then incubated with a source of receptor cleaving enzyme, and fluorescence is measured. The quenching group normally absorbs fluorescence from the emitter. But enzymatic cleavage of the peptide decouples the quenching group, and fluorescence emission increases proportionally.
(§2) The peptides used as substrates in the cleavage assay were taken from the known sites of proteolytic cleavage of the whole protein. The peptides were labeled with the fluorescence emitter (Edans-●) at the C-terminal, and the quenching hapten (Dabcyl-▴) at the N-terminal.
(§3) The assay is conducted in the presence of the metal cations Zn^++ (0.1 mM) and Ca^++ (2 mM), and corrected for cleavage in the presence of EDTA (20 mM). Dependence on divalent cations confirms that the enzyme activity measured in this assay is a metalloprotease. The assay mixture also contains a cocktail of protease inhibitors and bovine albumin. Cleavage is measured as the net change in fluorescence emission after incubating the enzyme with the peptide at 37° C. for 3 hours. […]

The subject of series [2] is human IL-1 type 1 and type 2 receptors. The experiment in a line: FRET peptide cleavage assay, IL-1 receptor peptides. Type of series: biochemical. The procedure:
as §1, §2, §3

Series [3] has as its target T1, p75 TNF Receptor (Homo sapiens, UniProt P20333).
T1 construct: endogenous in cells; host or cells: THP-1
T1 sequence (P20333 23-461): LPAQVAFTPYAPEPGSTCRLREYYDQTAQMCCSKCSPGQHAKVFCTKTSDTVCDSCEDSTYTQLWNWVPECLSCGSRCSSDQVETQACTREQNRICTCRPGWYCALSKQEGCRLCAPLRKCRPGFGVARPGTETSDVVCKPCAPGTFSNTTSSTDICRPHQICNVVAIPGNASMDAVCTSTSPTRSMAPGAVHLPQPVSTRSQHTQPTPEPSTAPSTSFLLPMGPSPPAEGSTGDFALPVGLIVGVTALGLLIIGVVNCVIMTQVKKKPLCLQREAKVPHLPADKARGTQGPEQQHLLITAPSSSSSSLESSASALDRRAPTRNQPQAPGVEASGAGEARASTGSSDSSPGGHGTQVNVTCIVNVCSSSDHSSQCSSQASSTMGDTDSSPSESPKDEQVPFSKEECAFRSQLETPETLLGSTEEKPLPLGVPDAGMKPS
The experiment in a line: Cleavage of cell surface p75 TNF receptor on THP-1 cells. Type of series: cell-based. The conditions noted are these: 45 minutes at 37° C. The procedure: This cell line expresses both the p55 TNF receptor and the p75 TNF receptor. After incubating for 45 minutes at 37° C., the cells were washed, immunostained for cell surface receptor, and counted by flow cytometry.

Series [4] deals with TNF receptor. The experiment in a line: Cell surface cleavage assay, release of TNF receptor isoforms by enzyme immunoassay. The class given is cell-based. The conditions noted are these: 25 μg protein with 2.5×10^6 cells; (treated—untreated)/untreated. The procedure: To determine cell surface cleavage activity, 25 μg of MP8-FL2 was combined with 2.5×10^6 cells. Release of both TNF receptor isoforms was determined by enzyme immunoassay as (treated—untreated)/untreated.

The test system of series [5] is collagen-induced arthritis. The experiment in a line: Collagen-induced arthritis, treatment from 3 days before collagen. Type of series: in vivo, DBA/1 LacJ mice. Here is the method:
(§4) Collagen-induced arthritis is a standard model for evaluating potential therapeutic agents for rheumatoid arthritis (Courtenay et al., Nature 283:666, 1980; Williams et al., Proc Natl Acad Sci USA 89:9784, 1992; Gerlag et al., J Immunol 165:1652, 2000). Arthritis was induced in 7-9 week old female DBA/1 LacJ mice by immunization with collagen. On day 0, the mice were injected at the base of the tail with 100 μg bovine type II collagen in complete Freund's adjuvant. On day 7, mice were boosted with an intraperitoneal injection of 100 μg collagen. To enhance and synchronize synovitis, the mice were injected subcutaneously on day 14 with 100 μg of lipopolysaccharide (LPS). Joint swelling was monitored in a blinded fashion by measuring the diameter in all 4 paws and both ankles using a constant pressure gauge. Arthritis Index was also determined on the following scale, and summed for all extremities. 0≡normal; 1≡one digit swollen; 2≡more than one digit swollen; 3≡joint distortion; 4≡ankylosis. The arthritis experiments were conducted under contract by Calvert Preclinical Services, Inc., Olyphant Pa.
As is typical in this model, not all animals respond to the collagen challenge.

Series [6] has as its system collagen-induced arthritis. The experiment in a line: Collagen-induced arthritis, treatment of established disease. Type of series: in vivo. Here is the method:
as §4
Mice were immunized with collagen on days 0, and 7, and then boosted with LPS on day 14. Treatment with MP8 was initiated on day 22 when arthritis was well established. At that time, animals with arthritis were randomized into three groups, and unaffected animals were excluded. The three affected groups were then treated for 18 consecutive days with saline control, or with MP8 at either of two different doses.

Series [7] has as its system carrageenan-induced paw edema. As to the kind of experiment: Carrageenan-induced paw edema. Type of series: in vivo, Sprague Dawley rats. The conditions noted are these: given one hour before carrageenan; paw volume three hours later; MP8 subcutaneously, indomethacin by mouth. The procedure:
Based on the standard model (Winter et al., Proc Soc Exp Biol Med 111:544, 1962; Hansra et al., Inflammation 24:141, 2000), the experiment was performed as follows. Male Sprague Dawley rats were randomized by weight into three treatment groups. The animals were administered MP8 or control solution subcutaneously, or indomethacin by mouth. One hour later, they were injected in the left hind paw with a sterile solution of 1% carrageenan suspension in water, in order to induce swelling. Three hours later, the volume of the injected paw was measured by water displacement in a water plethysmograph (mean±SEM; 10 animals per group).
Male Sprague Dawley rats were administered with test protein or indomethacin (anti-inflammatory control), and then challenged in a hind footpad with carrageenan, as in Example 12.
For orientation: In the carrageenan paw model, swelling and tenderness develop within hours.

B1: MP8: polypeptide having the sequence of SEQ. ID NO:41 (usually with a HIS tag); cytokine receptor releasing protein expressed in E. coli (protein, listed as Homo sapiens)
chain: WIQRIRHEGNSTVYEWRTGTEPSVVERPHLEELPEQVAEDAIDWGDFGVEAVSEGTDSGISAEAAGIDWGIFPESDSKDPGGDGIDWGDDAVALQITVLEAGTQAPEGVARGPDALTLLEYTETRNQFLDELMELEIFLAQRAVELSEEADVLSVSQFQLAPAILQGQTKEKMVTMVSVLEDLIGKLTSLQLQHLFMILASPRYVDRVTEFLQQKLKQSQLLALKKELMVQKQQEALEEQAALEPKLDLLLEKTKELQKLIEADISKRYSGRPVNLMGTSL
modifications: HIS tag
notes: ID NO:41 (usually with a HIS tag); cytokine receptor releasing protein expressed in E. coli
On to B1, for which the “cleavage of p55 TNF receptor (R1) peptide” value in series [1] is listed as “cleaves”. Moreover, the “cleavage of IL-1 receptor” value in series [2] was “cleaves”. The “cleavage of p75 TNF receptor on the surface of cells” value in series [3] is “cleaves”. Besides, in series [4], the “cleavage and release of TNF receptor from the cell surface” value was “cause cleavage and release of TNF receptor, with preference for the R1 (p55) isoform”. In addition, the “effectiveness compared with Enbrel” value in series [5] (300,000 FU daily) is “at least as effective as a scaled dose of Enbrel®”. For the same molecule, the “animals affected by arthritis” value in series [5] (300,000 FU daily starting 3 days before first collagen injection, 8 out of 9 controls affected) is given as “none of the animals treated with MP8 were affected”. Moreover, in series [5] (300,000 FU daily, prophylactic), the “joint swelling and arthritis index” value was “prevented the animals from showing any measurable signs of the disease”. In series [6] (MP8 treated groups), the toxicity result was “No toxicity was detected”. The “swelling in the affected joints” value in series [6] (daily for 18 days from day 22, two doses, p<0.001 vs control) was “highly significant reduction in swelling”. The “severity of inflammatory synovitis by histopathology” value in series [6] (higher dose, end of experiment) was “lower severity of inflammatory synovitis”. Further, the “level of antibodies to type II collagen in serum” value in series [6] (low or high dose, ELISA, p<0.02) is “almost half the control”. In addition, in series [7], the “inhibition of edema formation” value amounted to 62%.
